Source: paper PMC5821868, “Human Semaphorin-4A drives Th2 responses by binding to receptor ILT-4” (Nature Communications, 2018)

Target: T1, recombinant SEMA4A-Fc (Sino Bio. Inc) (human, UniProt Q9H3S1 33-683)
T1 construct: Semaphorin-4A (SEMA4A), human; Used only in the SPR experiment, coated on the CM5 chip; Probably the extracellular domain (surmise); no catalogue number is printed; also called hSEMA4A; source: bought: Sino Bio; Inc
T1 sequence (looked up): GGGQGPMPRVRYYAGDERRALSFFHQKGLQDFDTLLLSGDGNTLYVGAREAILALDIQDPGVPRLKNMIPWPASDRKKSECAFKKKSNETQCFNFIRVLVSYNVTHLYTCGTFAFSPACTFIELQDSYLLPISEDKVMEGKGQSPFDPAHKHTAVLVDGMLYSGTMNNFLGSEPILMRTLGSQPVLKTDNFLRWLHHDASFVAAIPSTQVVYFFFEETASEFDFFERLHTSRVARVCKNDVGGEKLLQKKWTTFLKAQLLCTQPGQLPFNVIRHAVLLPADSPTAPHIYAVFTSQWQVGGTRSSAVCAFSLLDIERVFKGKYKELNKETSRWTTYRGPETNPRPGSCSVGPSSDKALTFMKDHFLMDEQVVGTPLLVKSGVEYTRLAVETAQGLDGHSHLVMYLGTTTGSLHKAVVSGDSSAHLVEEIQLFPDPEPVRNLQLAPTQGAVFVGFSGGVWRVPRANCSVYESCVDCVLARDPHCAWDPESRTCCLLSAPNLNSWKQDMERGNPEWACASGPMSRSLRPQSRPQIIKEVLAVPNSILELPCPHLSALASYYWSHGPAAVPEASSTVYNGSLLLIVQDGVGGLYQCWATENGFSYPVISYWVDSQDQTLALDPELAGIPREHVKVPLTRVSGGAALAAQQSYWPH
Assay: SPR; SEMA4A-Fc (Sino Bio. Inc, 25 ug/ml) coated on a series S CM5 chip; ILT-4-Fc flowed at 10 to 0.625 uM in twofold dilutions; 25 °C; BIAcore T100
Settings: both partners purified

Kd: 3.8 µM
B1: recombinant ILT-4-Fc fusion protein (R&D Systems) (Fc fusion, human, UniProt Q8N423 22-460, looked up)
chain: QTGTIPKPTLWAEPDSVITQGSPVTLSCQGSLEAQEYRLYREKKSASWITRIRPELVKNGQFHIPSITWEHTGRYGCQYYSRARWSELSDPLVLVMTGAYPKPTLSAQPSPVVTSGGRVTLQCESQVAFGGFILCKEGEDEHPQCLNSQPHARGSSRAIFSVGPVSPNRRWSHRCYGYDLNSPYVWSSPSDLLELLVPGVSKKPSLSVQPGPVMAPGESLTLQCVSDVGYDRFVLYKEGERDLRQLPGRQPQAGLSQANFTLGPVSRSYGGQYRCYGAHNLSSECSAPSDPLDILITGQIRGTPFISVQPGPTVASGENVTLLCQSWRQFHTFLLTKAGAADAPLRLRSIHEYPKYQAEFPMSPVTSAHAGTYRCYGSLNSDPYLLSHPSEPLELVVSGPSMGSSPPPTGPISTPGPEDQPLTPTGSDPQSGLGRHLGV
notes: Immunoglobulin-like transcript 4 (ILT-4, LILRB2), human; APC-labelled with the Zenon labeling kit for flow cytometry; Probably the extracellular domain of ILT-4 (surmise); no catalogue number is printed; also called APC-ILT-4-Fc; hILT-4; source: bought: R&D Systems
